Biological target: the molecule itself
Experiment: crystal structure

B1: His-HypR (His-tagged HypR, wild type), oxidized by diamide or NaOCl (natural protein, B. subtilis, UniProt P37486 1-125, looked up)
chain: MSEKKNIYPNKEGCPVEFTLDVIGGKWKGILFYHMIDGKKRFNEFRRICPSITQRMLTLQLRELEADGIVHREVYHQVPPKVEYSLTEFGRTLEPIVLQMKEWGESNRDVLESYRSNGLVKDQQK
modifications: Cys14-Cys49' intersubunit disulphide after oxidation with diamide or NaOCl
  stoichiometry N: 2
